Results published in paper PMC12499500, “Structural Basis of GABAB Receptor Activation during Evolution” (Advanced Science, 2025).

Experiments:
Experiment in all cases: cell-based or functional assay
human GB2 Δ760 = biological target: T1, human GB2 Δ760 (human, UniProt O75899 42-760)
T1 sequence (looked up): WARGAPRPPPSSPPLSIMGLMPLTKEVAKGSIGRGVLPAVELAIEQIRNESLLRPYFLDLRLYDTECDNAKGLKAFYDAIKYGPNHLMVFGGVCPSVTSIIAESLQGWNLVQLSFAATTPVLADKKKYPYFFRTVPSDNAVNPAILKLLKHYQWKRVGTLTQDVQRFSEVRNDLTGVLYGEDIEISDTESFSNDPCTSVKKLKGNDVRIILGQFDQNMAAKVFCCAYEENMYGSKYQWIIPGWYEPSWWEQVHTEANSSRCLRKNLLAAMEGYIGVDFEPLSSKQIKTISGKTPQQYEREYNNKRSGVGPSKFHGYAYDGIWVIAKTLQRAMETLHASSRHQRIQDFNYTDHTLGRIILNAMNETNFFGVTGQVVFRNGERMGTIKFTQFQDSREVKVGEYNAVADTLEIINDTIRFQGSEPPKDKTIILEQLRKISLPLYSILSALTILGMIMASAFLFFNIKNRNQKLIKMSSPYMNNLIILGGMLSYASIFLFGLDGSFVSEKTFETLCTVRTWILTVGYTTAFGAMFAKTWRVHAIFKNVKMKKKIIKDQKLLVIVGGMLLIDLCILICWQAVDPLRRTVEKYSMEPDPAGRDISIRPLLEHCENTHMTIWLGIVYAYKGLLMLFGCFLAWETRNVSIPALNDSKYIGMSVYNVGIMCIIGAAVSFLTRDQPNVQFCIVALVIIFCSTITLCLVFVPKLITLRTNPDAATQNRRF

[1] = biological target: dGB2 12A (ordered C-terminus 717–728 replaced by 12 alanines) (Drosophila melanogaster, UniProt Q9BML6 1-1220, 12A: residues 717–728 replaced with 12 consecutive alanine residues)
Sequence of dGB2 12A (ordered C-terminus 717–728 replaced by 12 alanines) (Q9BML6 entry or part of it with the stated changes): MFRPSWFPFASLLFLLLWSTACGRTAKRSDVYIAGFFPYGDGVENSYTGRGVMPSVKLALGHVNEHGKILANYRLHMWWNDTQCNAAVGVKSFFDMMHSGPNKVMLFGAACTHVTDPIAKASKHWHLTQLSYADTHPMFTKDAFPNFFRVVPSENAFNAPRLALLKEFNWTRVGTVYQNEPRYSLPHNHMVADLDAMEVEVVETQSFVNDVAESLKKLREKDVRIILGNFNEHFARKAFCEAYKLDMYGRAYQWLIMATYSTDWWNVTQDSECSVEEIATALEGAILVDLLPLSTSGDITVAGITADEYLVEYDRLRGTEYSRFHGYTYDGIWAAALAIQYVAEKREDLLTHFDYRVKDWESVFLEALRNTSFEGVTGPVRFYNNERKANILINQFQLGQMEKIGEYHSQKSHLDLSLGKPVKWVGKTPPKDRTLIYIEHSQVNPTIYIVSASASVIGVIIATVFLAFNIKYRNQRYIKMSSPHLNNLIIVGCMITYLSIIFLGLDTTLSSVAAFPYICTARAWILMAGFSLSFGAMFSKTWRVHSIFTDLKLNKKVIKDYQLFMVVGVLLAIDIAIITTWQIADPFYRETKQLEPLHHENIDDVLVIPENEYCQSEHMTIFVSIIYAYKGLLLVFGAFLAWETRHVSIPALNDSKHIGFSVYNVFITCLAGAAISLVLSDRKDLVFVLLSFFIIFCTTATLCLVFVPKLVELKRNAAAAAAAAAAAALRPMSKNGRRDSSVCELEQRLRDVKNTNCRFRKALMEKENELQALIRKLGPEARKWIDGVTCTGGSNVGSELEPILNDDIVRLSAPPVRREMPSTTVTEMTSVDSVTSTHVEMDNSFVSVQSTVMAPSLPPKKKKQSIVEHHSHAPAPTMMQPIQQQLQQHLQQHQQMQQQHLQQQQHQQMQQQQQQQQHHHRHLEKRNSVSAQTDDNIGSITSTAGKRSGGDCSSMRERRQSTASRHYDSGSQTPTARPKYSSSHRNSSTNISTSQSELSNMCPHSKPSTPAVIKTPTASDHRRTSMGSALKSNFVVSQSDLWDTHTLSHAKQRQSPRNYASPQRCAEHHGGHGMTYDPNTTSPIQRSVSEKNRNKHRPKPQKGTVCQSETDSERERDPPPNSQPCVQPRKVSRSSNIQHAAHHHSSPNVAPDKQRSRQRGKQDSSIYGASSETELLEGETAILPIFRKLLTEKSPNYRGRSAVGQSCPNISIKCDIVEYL

human GB2 Δ765 = biological target: T2, human GB2 Δ765 (human, UniProt O75899 42-765)
T2 sequence (looked up): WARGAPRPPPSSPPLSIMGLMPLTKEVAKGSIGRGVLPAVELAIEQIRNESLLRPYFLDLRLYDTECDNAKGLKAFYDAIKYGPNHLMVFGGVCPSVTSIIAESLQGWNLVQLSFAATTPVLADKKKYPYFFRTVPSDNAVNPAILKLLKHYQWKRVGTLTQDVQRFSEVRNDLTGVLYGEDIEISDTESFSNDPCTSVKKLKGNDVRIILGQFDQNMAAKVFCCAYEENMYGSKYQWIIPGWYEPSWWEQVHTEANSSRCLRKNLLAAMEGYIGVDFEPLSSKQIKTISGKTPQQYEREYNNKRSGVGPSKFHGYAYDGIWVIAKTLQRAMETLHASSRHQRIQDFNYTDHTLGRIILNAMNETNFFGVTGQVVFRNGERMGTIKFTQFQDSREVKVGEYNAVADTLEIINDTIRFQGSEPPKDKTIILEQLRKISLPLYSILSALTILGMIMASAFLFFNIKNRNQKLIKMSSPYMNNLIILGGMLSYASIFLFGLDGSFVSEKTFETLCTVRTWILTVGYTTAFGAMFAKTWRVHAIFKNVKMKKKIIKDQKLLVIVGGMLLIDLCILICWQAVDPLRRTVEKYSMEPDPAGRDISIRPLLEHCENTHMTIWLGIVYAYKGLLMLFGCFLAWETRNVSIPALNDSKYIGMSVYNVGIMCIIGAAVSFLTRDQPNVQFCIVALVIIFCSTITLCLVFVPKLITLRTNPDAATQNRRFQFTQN

human GB2 Δ772 = biological target: T3, human GB2 Δ772 (human, UniProt O75899 42-772)
T3 sequence (looked up): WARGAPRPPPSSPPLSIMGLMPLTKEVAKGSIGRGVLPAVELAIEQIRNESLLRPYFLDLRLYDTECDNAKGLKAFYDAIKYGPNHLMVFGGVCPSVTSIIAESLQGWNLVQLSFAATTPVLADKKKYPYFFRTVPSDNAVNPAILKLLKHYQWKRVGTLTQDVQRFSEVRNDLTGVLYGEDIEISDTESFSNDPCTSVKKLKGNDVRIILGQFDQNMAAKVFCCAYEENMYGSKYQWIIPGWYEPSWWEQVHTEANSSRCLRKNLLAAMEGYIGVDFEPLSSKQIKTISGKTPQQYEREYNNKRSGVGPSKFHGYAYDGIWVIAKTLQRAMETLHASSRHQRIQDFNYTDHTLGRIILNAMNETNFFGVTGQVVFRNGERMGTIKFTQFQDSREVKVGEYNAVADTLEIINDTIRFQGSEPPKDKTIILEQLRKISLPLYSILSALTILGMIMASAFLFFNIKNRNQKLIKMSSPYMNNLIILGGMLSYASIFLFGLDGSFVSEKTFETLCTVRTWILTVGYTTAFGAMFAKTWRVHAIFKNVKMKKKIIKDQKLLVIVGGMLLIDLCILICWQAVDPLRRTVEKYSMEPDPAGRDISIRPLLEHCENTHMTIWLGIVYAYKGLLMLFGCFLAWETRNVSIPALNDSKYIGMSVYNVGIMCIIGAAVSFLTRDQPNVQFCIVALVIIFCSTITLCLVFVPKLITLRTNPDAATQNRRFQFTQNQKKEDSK

[2] = biological target: dGB2 4 × GSG (ordered C-terminus 717–728 replaced by four glycine-serine-glycine) (Drosophila melanogaster, UniProt Q9BML6 1-1220, 4 × GSG: residues 717–728 replaced with four consecutive glycine-serine-glycine)
Sequence of dGB2 4 × GSG (ordered C-terminus 717–728 replaced by four glycine-serine-glycine) (Q9BML6 entry or part of it with the stated changes): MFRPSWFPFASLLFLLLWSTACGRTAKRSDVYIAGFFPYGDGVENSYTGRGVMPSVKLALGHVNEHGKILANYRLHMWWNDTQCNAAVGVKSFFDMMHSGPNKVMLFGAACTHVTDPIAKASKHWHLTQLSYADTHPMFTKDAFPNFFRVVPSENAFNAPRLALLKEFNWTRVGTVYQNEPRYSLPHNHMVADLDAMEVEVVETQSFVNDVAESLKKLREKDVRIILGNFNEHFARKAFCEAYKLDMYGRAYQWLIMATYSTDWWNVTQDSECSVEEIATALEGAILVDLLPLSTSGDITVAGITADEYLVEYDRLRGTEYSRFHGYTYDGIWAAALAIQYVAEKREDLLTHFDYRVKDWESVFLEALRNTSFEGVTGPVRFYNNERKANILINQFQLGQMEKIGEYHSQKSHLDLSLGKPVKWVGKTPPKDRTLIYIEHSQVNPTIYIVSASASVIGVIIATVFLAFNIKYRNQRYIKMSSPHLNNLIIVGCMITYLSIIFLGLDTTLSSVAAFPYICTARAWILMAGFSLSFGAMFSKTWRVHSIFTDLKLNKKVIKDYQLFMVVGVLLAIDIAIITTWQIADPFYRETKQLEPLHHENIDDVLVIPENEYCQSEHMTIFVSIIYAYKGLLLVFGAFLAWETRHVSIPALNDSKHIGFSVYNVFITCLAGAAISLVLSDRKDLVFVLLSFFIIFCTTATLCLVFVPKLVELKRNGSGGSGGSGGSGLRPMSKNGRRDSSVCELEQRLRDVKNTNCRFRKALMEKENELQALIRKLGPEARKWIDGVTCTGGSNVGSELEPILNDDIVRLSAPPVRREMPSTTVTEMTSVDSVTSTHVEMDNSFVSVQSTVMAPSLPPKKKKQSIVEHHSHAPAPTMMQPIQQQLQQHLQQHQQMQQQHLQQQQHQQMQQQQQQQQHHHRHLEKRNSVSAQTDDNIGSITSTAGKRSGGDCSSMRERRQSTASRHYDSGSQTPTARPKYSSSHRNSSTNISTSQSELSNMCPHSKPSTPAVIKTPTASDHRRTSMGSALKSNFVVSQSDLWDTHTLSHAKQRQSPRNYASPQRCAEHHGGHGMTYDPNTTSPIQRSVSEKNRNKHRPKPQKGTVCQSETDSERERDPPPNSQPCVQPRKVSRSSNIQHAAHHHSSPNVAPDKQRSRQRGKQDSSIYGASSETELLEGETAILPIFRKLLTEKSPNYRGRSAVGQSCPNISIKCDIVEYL

human GB2 Δ753 = biological target: T4, human GB2 Δ753 (human, UniProt O75899 42-753)
T4 sequence (looked up): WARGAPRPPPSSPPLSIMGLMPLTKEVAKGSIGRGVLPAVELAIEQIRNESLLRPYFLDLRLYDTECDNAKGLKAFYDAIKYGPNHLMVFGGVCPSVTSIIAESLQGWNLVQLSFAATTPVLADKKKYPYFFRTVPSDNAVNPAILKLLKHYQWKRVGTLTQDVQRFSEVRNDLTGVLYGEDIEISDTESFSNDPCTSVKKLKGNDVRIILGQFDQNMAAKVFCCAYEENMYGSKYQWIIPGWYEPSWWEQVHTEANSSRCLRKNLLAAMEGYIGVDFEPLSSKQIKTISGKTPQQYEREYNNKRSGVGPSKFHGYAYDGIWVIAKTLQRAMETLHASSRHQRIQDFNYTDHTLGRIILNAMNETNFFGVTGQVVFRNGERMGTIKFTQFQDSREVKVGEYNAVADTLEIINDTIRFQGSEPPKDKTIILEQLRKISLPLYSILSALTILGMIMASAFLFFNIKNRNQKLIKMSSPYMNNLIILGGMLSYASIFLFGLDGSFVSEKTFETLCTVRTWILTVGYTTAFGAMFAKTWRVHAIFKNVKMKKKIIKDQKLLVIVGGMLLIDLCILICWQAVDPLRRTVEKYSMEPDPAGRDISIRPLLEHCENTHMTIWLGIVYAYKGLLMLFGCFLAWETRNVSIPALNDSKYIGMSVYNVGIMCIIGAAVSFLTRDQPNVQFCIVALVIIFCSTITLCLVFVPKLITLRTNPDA

B1: dominant-negative Gαi1 (S47N, G203A, E245A, A326S) (natural protein, human)
chain: MGCTLSAEDKAAVERSKMIDRNLREDGEKAAREVKLLLLGAGESGKNTIVKQMKIIHEAGYSEEECKQYKAVVYSNTIQSIIAIIRAMGRLKIDFGDSARADDARQLFVLAGAAEEGFMTAELAGVIKRLWKDSGVQACFNRSREYQLNDSAAYYLNDLDRIAQPNYIPTQQDVLRTRVKTTGIVETHFTFKDLHFKMFDVGAQRSERKKWIHCFEGVTAIIFCVALSDYDLVLAEDEEMNRMHASMKLFDSICNNKWFTDTSIILFLNKKDLFEEKIKKSPLTICYPEYAGSNTYEEAAAYIQCQFEDLNKRKDTKEIYTHFTCSTDTKNVQFVFDAVTDVIIKNNLKDCGLF
**Q.** How did the “GABA-induced intracellular Ca2+ release, HEK293 cells co-transfected with GB1ΔCC and the GB2 truncation, increase in EC50 against Δ780 of GB2” value (human GB2 Δ760) turn out when B1 was run?
**A.** Its value is 16.2 fold.

**Q.** What about the “GABA-induced intracellular Ca2+ release, HEK293 cells co-transfected with GB1ΔCC and the GB2 truncation, reduction in E max against Δ780 of GB2” value (human GB2 Δ760) of the same binder?
**A.** Its value is 39 % reduction in E max.

**Q.** And the “BRET assay of GABA-induced dissociation of Gαi1 and Gβγ in HEK293 cells, change of EC50 against wild-type dGB2” value [1]?
**A.** The value was 8.8 fold.

**Q.** What about the “GABA-induced intracellular Ca2+ release (Gqi9), change of EC50 of GABA against wild-type dGB2” value [1] of the same binder?
**A.** The value was 2 fold.

**Q.** What about the “GABA-induced intracellular Ca2+ release, HEK293 cells co-transfected with GB1ΔCC and the GB2 truncation, increase in EC50 against Δ780 of GB2” value (human GB2 Δ765) of the same binder?
**A.** Its value is 9.4 fold.

**Q.** What about the “GABA-induced intracellular Ca2+ release, HEK293 cells co-transfected with GB1ΔCC and the GB2 truncation, reduction in E max against Δ780 of GB2” value (human GB2 Δ765) of the same binder?
**A.** The value was 22 % reduction in E max.

**Q.** What about the “GABA-induced intracellular Ca2+ release, HEK293 cells co-transfected with GB1ΔCC and the GB2 truncation, increase in EC50 against Δ780 of GB2” value (human GB2 Δ772) of the same binder?
**A.** The value was 6.5 fold.

**Q.** And the “BRET assay of GABA-induced dissociation of Gαi1 and Gβγ in HEK293 cells, change of EC50 against wild-type dGB2” value [2]?
**A.** Its value is 3 fold.

**Q.** What about the “GABA-induced intracellular Ca2+ release, HEK293 cells co-transfected with GB1ΔCC and the GB2 truncation, increase in EC50 against Δ780 of GB2” value (human GB2 Δ753) of the same binder?
**A.** Its value is 30.8 fold.

**Q.** What about the “GABA-induced intracellular Ca2+ release, HEK293 cells co-transfected with GB1ΔCC and the GB2 truncation, reduction in E max against Δ780 of GB2” value (human GB2 Δ753) of the same binder?
**A.** Its value is 76 % reduction in E max.
